Test results reported in paper PMC11348219.
Several values for one entry are separate records, joined by “and”; a condition that tells them apart may be missing. Equal values may be shown once.

Biological target: mutant-1a anti-A scFv
Assay: non-reducing SDS-PAGE; elution fraction EfA1 of nickel affinity chromatography on a Coomassie-stained 15% SDS-PAGE gel, non-reducing

stoichiometry N: 2 and 3
B1: mutant-1a anti-A scFv (scFv, V domains shown)
VH: QVQLQQPGAELVKPGTSVKLSCKASGYNFTSYWINWVKLRPGQCLEWIGDIYPGSGITNYNEKFKSKATLTVDTSSSTAYMQLSSLASEDSALYYCAGQYGNLWFAYWGQGTLVTVSG
VL: DIQMTQTTSSLSASLGDRVTISCRASQDINNYLNWYQQKPDGTVKLLIHYTSRLHSGVPSRFSGSGSGTDYSLTISNLEQEDIATYFCQQGNTLPWTFGCGTKLEIK
